Data as given in publication PMC3355655.

Substrate: O=P(O)(O)O[C@H]1[C@H](O)[C@@H](OP(=O)(O)O)[C@H](OP(=O)(O)O)[C@@H](OP(=O)(O)O)[C@H]1O
Experiment: purified protein
Conditions: Mg2+

B1: SHIP2 (SH2 (Src homology 2)-domain-containing inositol-phosphatase-2) (Homo sapiens) (protein)
chain: DEPDMISVFIGTWNMGSVPPPKNVTSWFTSKGLGKTLDEVTVTIPHDIYVFGTQENSVGDREWLDLLRGGLKELTDLDYRPIAMQSLWNIKVAVLVKPEHENRISHVSTSSVKTGIANTLGNKGAVGVSFMFNGTSFGFVNCHLTSGNEKTARRNQNYLDILRLLSLGDRQLNAFDISLRFTHLFWFGDLNYRLDMDIQEILNYISRKEFEPLLRVDQLNLEREKHKVFLRFSEEEISFPPTYRYERGSRDTYAWHKQKPTGVRTNVPSWCDRILWKSYPETHIICNSYGCTDDIVTSDHSPVFGTFEVGVTSQFISKKGLSKTSDQAYIEFESIEAIVKTASRTKFFIEFYSTCLEEYKKSFENDAQSSDNINFLKVQWSSRQLPTLKPILADIEYLQDQHLLLTVKSMDGYE
**Q.** B1 was tested. Which Km did it give?
**A.** 215 ± 28 µM
